This passage reports abundance fitness results from the Human Domainome abundance scans (Beltran et al. 2025).

B1: Transcription intermediary factor 1-beta, residues 620 to 671; numbered along this chain, Q13263 (parent)
chain: TLDDSATICRVCQKPGDLVMCNQCEFCFHLDCHLPALQDVPGEEWSCSLCHV

± gives the uncertainty stated by the source.

Variants of B1 are the subject of this data set. Nature of the data set: abundance fitness (aPCA) (normalised: wild type 0, dead -1); higher = more abundant; growth selection in yeast, the domain comes from the species named. To be noted: Homo sapiens.
With P35A, the abundance fitness is -0.553 ± 0.12. In the case of P35Q, the abundance fitness is -0.698 ± 0.2. For P35W the value was -0.799 ± 0.14; for P35G, -0.244 ± 0.096; for P35R, -0.488 ± 0.11. For P35S the value was -0.128 ± 0.1; for P35T, -0.552 ± 0.16. For P35N the value was -0.222 ± 0.17; for P35V, -0.458 ± 0.088. P35L: the abundance fitness is -0.508 ± 0.12.

In the case of P35E, the abundance fitness was -0.447 ± 0.12. Turning to P35M, the abundance fitness was -0.291 ± 0.15. For P35F the value was -0.637 ± 0.17; for P35K, -0.18 ± 0.16; for P35D, -0.447 ± 0.14.

As to P35H, the abundance fitness was -0.431 ± 0.23. For D39F the value was -0.214 ± 0.17. For D39N the value was -0.551 ± 0.27.

On to D39W, for which the abundance fitness was -0.545 ± 0.14. For D39G the value was -0.235 ± 0.098; for D39K, -0.272 ± 0.21. Consider D39T, for which the abundance fitness is -0.089 ± 0.19. For D39A the value was -0.175 ± 0.16; for D39V, 0.026 ± 0.099. Regarding D39I, the abundance fitness is -0.121 ± 0.16.

Regarding D39C, the abundance fitness was -0.212 ± 0.15.

For the variant D39S, the abundance fitness was -0.227 ± 0.12. For D39R the value was -0.222 ± 0.1; for D39M, -0.24 ± 0.14.

On to D39Q, for which the abundance fitness is -0.184 ± 0.17. For the variant D39Y, the abundance fitness is -0.206 ± 0.17. Consider D39E, for which the abundance fitness stood at 0.287 ± 0.16. For D39H the value was -0.268 ± 0.21; for L49E, 0.389 ± 0.092; for L49P, 0.1 ± 0.098. For L49S the value was 0.303 ± 0.08; for L49G, 0.334 ± 0.066; for L49D, 0.277 ± 0.1. For L49T the value was 0.301 ± 0.086; for L49Y, 0.131 ± 0.12; for L49N, 0.46 ± 0.13. On to L49M, for which the abundance fitness was determined as 0 ± 0.092.

With L49F, the abundance fitness amounted to 0.192 ± 0.12. Regarding L49A, the abundance fitness is 0.205 ± 0.076. Regarding L49Q, the abundance fitness was determined as 0.263 ± 0.12. For L49I the value was -0.045 ± 0.14; for L49H, 0.496 ± 0.15. As to L49W, the abundance fitness turned out to be 0.066 ± 0.076. As for L49R, the abundance fitness is 0.219 ± 0.075. In the case of L49C, the abundance fitness was -0.282 ± 0.14. For the variant L49V, the abundance fitness is -0.09 ± 0.082. For L49K, the abundance fitness worked out at 0.27 ± 0.11. For C47H the value was -0.572 ± 0.14; for C47E, -0.295 ± 0.088; for C47Q, -0.636 ± 0.14. For C47D the value was -0.456 ± 0.12. For C47P the value was -0.484 ± 0.12; for C47R, -0.552 ± 0.079. For C47N, the abundance fitness was -0.382 ± 0.12. For C47M the value was -0.794 ± 0.12.

As for C47G, the abundance fitness was -0.33 ± 0.075. For C47S the value was -0.343 ± 0.083; for C47Y, -0.736 ± 0.17; for C47V, -0.807 ± 0.089. For C47W the value was -0.951 ± 0.11; for C47T, -0.565 ± 0.11. For C47I the value was -1.05 ± 0.22; for C47L, -0.864 ± 0.1. As to C47K, the abundance fitness was -0.466 ± 0.11.

As to Q38T, the abundance fitness was -0.345 ± 0.13. For the variant Q38I, the abundance fitness came to 0.079 ± 0.15. For Q38K the value was -0.18 ± 0.17.

As for Q38G, the abundance fitness was -0.181 ± 0.1. Take Q38F: the abundance fitness was -0.39 ± 0.14. As for Q38P, the abundance fitness is -0.437 ± 0.15. For Q38A the value was -0.02 ± 0.1; for Q38W, -0.482 ± 0.12. Consider Q38S, for which the abundance fitness is -0.295 ± 0.099. For Q38H the value was -0.279 ± 0.2; for Q38R, 0.023 ± 0.091; for Q38V, -0.132 ± 0.099. For Q38N the value was 0.082 ± 0.2. As to Q38C, the abundance fitness is -0.401 ± 0.16. For Q38E the value was -0.434 ± 0.16; for Q38Y, -0.417 ± 0.17; for Q38L, -0.227 ± 0.09.

As for Q38M, the abundance fitness is -0.443 ± 0.15. For S46V the value was 0.059 ± 0.072. For S46T the value was -0.09 ± 0.11.

Turning to S46M, the abundance fitness came to 0.082 ± 0.1. Consider S46F, for which the abundance fitness was -0.129 ± 0.11. For S46W the value was -0.131 ± 0.098; for S46P, -0.208 ± 0.13; for S46I, -0.01 ± 0.12. Take S46Y: the abundance fitness was -0.245 ± 0.12.

Turning to S46R, the abundance fitness is -0.101 ± 0.074.

On to S46Q, for which the abundance fitness amounted to 0.118 ± 0.094. In the case of S46E, the abundance fitness was determined as 0.111 ± 0.082. For S46A the value was 0.128 ± 0.077.

S46K: the abundance fitness stood at 0.155 ± 0.1. For S46N the value was 0.018 ± 0.13.

As for S46H, the abundance fitness is -0.113 ± 0.14. For S46C the value was -0.116 ± 0.091; for S46L, -0.003 ± 0.078. H33M: the abundance fitness is -0.205 ± 0.15. Regarding H33R, the abundance fitness was -0.109 ± 0.095.

H33T: the abundance fitness is -0.235 ± 0.14. For H33G the value was -0.159 ± 0.083. In the case of H33V, the abundance fitness turned out to be 0.033 ± 0.098.

H33C: the abundance fitness is 0.217 ± 0.14.

H33I: the abundance fitness is -0.325 ± 0.23. For H33Y the value was -0.294 ± 0.14; for H33E, 0.2 ± 0.15; for H33D, 0.086 ± 0.12. H33N: the abundance fitness was -0.139 ± 0.17. For H33S the value was 0.012 ± 0.1. H33A: the abundance fitness was -0.013 ± 0.1. For H33Q the value was 0.042 ± 0.15; for H33W, -0.444 ± 0.13. For H33P the value was -0.344 ± 0.14; for H33L, -0.117 ± 0.098; for H33K, -0.218 ± 0.17.

As to G42M, the abundance fitness is -0.091 ± 0.14. For G42A the value was 0.014 ± 0.085; for G42H, 0.083 ± 0.24; for G42Y, -0.421 ± 0.21. With G42T, the abundance fitness came out at 0.174 ± 0.12. In the case of G42C, the abundance fitness was -0.222 ± 0.16. For G42K the value was 0.095 ± 0.16. Consider G42S, for which the abundance fitness is -0.265 ± 0.13. For G42V the value was -0.107 ± 0.099. For G42Q the value was -0.028 ± 0.22. For G42F the value was -0.161 ± 0.22; for G42W, -0.302 ± 0.14. Regarding G42P, the abundance fitness is -0.085 ± 0.13. For G42L the value was -0.086 ± 0.092; for G42R, -0.074 ± 0.099; for G42E, -0.139 ± 0.15. In the case of C32E, the abundance fitness was -0.871 ± 0.24.

On to C32S, for which the abundance fitness was -0.507 ± 0.13.

As for C32A, the abundance fitness is -0.545 ± 0.14. For C32P the value was -0.454 ± 0.16; for C32N, -0.528 ± 0.25. For C32V the value was -1.03 ± 0.17. As to C32I, the abundance fitness is -0.911 ± 0.2. For C32M the value was -0.952 ± 0.16; for C32W, -0.923 ± 0.18. For C32K the value was -0.795 ± 0.17; for C32R, -0.704 ± 0.11; for C32L, -0.925 ± 0.12. For C32Q, the abundance fitness was -0.904 ± 0.26.

Consider C32H, for which the abundance fitness is -0.501 ± 0.22. For C32G the value was -0.652 ± 0.11; for C32D, -0.683 ± 0.18; for C32F, -0.959 ± 0.18.

On to C32T, for which the abundance fitness is -0.937 ± 0.18. For C32Y the value was -0.45 ± 0.15.

For the variant S48C, the abundance fitness is -0.324 ± 0.2. As for S48M, the abundance fitness is 0.386 ± 0.1. For S48W the value was 0.057 ± 0.13; for S48F, -0.45 ± 0.18; for S48L, -0.409 ± 0.097. Regarding S48H, the abundance fitness came out at 0.052 ± 0.21. For S48Y the value was -0.094 ± 0.14; for S48I, -0.798 ± 0.2; for S48Q, -0.234 ± 0.18.

On to S48P, for which the abundance fitness amounted to 0.152 ± 0.12.
